{
  "source": "paper PMC9174178",
  "about": "(Cell Reports, 2022)",
  "key": {"[1]": {"target": "T1, BM-4831-CoV receptor-binding domain (RBD) (Bat coronavirus BM48-31/BGR/2008)", "test": "ELISA"}, "[2]": {"target": "SARS-CoV-2 receptor-binding domain (RBD) (SARS-CoV-2 (MN985325.1), UniProt P0DTC2)"}, "[3]": {"target": "T2, SARS-CoV receptor-binding domain (RBD) (SARS-CoV (AAP13441.1), UniProt P59594)"}, "[4]": {"target": "T2, SARS-CoV receptor-binding domain (RBD)", "test": "SPR"}, "[5]": {"target": "T1, BM-4831-CoV receptor-binding domain …", "test": "SPR"}, "[6]": {"target": "W1V1-CoV receptor-binding domain (RBD) (Bat SARS-like coronavirus WIV1, UniProt U5WI05)", "test": "ELISA"}, "[7]": {"target": "Yun11-CoV receptor-binding domain (RBD) (Bat coronavirus Cp/Yunnan2011, UniProt R9QTH3)", "test": "ELISA"}, "[8]": {"target": "BtkY72-CoV receptor-binding domain (RBD) (Bat coronavirus BtKY72, UniProt A0A3Q8AKM0)", "test": "ELISA"}, "[9]": {"target": "Rs7327-CoV receptor-binding domain (RBD) (Bat SARS-like coronavirus Rs7327, UniProt A0A2D1PXC0)", "test": "ELISA"}, "[10]": {"target": "Rs4092-CoV receptor-binding domain (RBD) (Bat SARS-like coronavirus Rs4092, UniProt A0A2D1PX37)", "test": "ELISA"}, "[11]": {"target": "YN2013-CoV receptor-binding domain (RBD) (BtRs-BetaCoV/YN2013, UniProt A0A0U1WJY8)", "test": "ELISA"}, "[12]": {"target": "ZC45-CoV receptor-binding domain (RBD) (Bat SARS-like coronavirus ZC45, UniProt A0A2R3SUW7)", "test": "ELISA"}, "[13]": {"target": "HKU3-1-CoV receptor-binding domain (RBD) (Bat coronavirus HKU3-1, UniProt Q3LZX1)", "test": "ELISA"}, "[14]": {"target": "Shaanxi2011-CoV receptor-binding domain (RBD) (Bat coronavirus Rp/Shaanxi2011, UniProt R9QTA0)", "test": "ELISA"}, "[15]": {"target": "Rp3-CoV receptor-binding domain (RBD) (Bat SARS-like coronavirus Rp3/2004, UniProt Q3I5J5)", "test": "ELISA"}, "[16]": {"target": "RaTG13-CoV receptor-binding domain (RBD) (Bat coronavirus RaTG13, UniProt A0ABF7PLN6)", "test": "ELISA"}, "[17]": {"target": "SHC014-CoV receptor-binding domain (RBD) (Bat SARS-like coronavirus RsSHC014, UniProt U5WLK5)", "test": "ELISA"}, "[18]": {"target": "Rs4081-CoV receptor-binding domain (RBD) (Bat SARS-like coronavirus Rs4081, UniProt A0A2D1PX44)", "test": "ELISA"}, "[19]": {"target": "pangolin17-CoV receptor-binding domain (RBD) (Pangolin coronavirus (pangolin17, …))", "test": "ELISA"}, "[20]": {"target": "Rf1-CoV receptor-binding domain (RBD) (Bat SARS CoV Rf1/2004, UniProt Q0QDZ0)", "test": "ELISA"}},
  "data": [
    {"binder": "psNb 2-65 (VHH) VHH: HVQLVESGGGLVQAGGSLRLSCAASGTISTLNAMGWYRQAPGKQRELLASISNLGTTYHADSVAGRFTISRGSAKNTVNLQMNSLKPDDTAVYYCNTRVLEGGTQIRDYWGQGTQVTVSS", "values": [
      {"measurement": "binding result", "setting": "[1]", "value": "binds"}
    ]},
    {"binder": "1-28 (VHH) VHH: QVQLVESGGGLVQAGGSLRLSCAVSGRTVSTYGMAWFRQTPGKKRDFVATITRSEGTTFYADSVKGRFTISRDNAKNTVYLQMNSLKIEDTAVYYCAVRRDSSWGYSRDLFEYDDWGQGTQVTVSS", "values": [
      {"measurement": "binding result", "setting": "[2]", "value": "binds"},
      {"measurement": "binding result", "setting": "[3]", "value": "binds"}
    ]},
    {"binder": "psNb 2-45 (VHH) VHH: QVQLVESGGGLVQAGGSLRLSCTASGYDFSILAIAWYRQAPGKERELVAAISRVGSTDYADSVKGRFTISRDNTKNTVSLQMDSLKPEDTAVYYCNAGIPMTTVLSGLGFWGQGTQVTVSS", "values": [
      {"measurement": "Kd", "setting": "[4]", "value": 304, "unit": "nM"},
      {"measurement": "Kd", "setting": "[5]", "value": 0.044, "unit": "nM"},
      {"measurement": "binding result", "setting": "[6]", "value": "binds"},
      {"measurement": "binding result", "setting": "[7]", "value": "binds"},
      {"measurement": "binding result", "setting": "[8]", "value": "binds"},
      {"measurement": "binding result", "setting": "[9]", "value": "binds"},
      {"measurement": "binding result", "setting": "[10]", "value": "binds"},
      {"measurement": "binding result", "setting": "[11]", "value": "binds"},
      {"measurement": "binding result", "setting": "[12]", "value": "binds"},
      {"measurement": "binding result", "setting": "[13]", "value": "binds"},
      {"measurement": "binding result", "setting": "[14]", "value": "binds"},
      {"measurement": "binding result", "setting": "[15]", "value": "binds"},
      {"measurement": "binding result", "setting": "[16]", "value": "binds"},
      {"measurement": "binding result", "setting": "[17]", "value": "binds"},
      {"measurement": "binding result", "setting": "[18]", "value": "binds"},
      {"measurement": "binding result", "setting": "[19]", "value": "binds"},
      {"measurement": "binding result", "setting": "[20]", "value": "binds"}
    ]},
    {"binder": "psNb 1-22 (VHH) VHH: HVQLVESGGGLVQPGGSLRLSCAASGRSFNSYLMGWFRQAPGKEREFVAWISGSPHDIIRYRDSVKDRFTISRDNAKNTVYLQMNSLKPVDTAVYYCAVGSLRVGSFSPDYWGQGTQVTVSS", "values": [
      {"measurement": "binding result", "setting": "[1]", "value": "binds"}
    ]},
    {"binder": "psNb 1-23 (VHH) VHH: QVQLVESGGGLVQAGGSLRLSCAASGRTDSISDMGWFRQAPGKEREFVAVVGWSGGGTDYAHSVKGRFTISRDNAKNTVYLQMNSLKPEDTAVYYCAVGSLRVGSFSVEYWGQGTQVTVSS", "values": [
      {"measurement": "binding result", "setting": "[1]", "value": "binds"}
    ]},
    {"binder": "psNb 2-34 (VHH) VHH: HVQLVESGGGLVQAGGSLRLSCAASGRTFSRYAAGWFRQAPGKEREFVAVIEWDGDSAYYADPVKGRFTISRDNAKNTVYLQMNRLKPEDTAVYICAVGGNHYSRSKYYNLDEYDDWGQGTQVTVSS", "values": [
      {"measurement": "binding result", "setting": "[6]", "value": "binds"},
      {"measurement": "binding result", "setting": "[7]", "value": "binds"},
      {"measurement": "binding result", "setting": "[8]", "value": "binds"},
      {"measurement": "binding result", "setting": "[9]", "value": "binds"},
      {"measurement": "binding result", "setting": "[10]", "value": "binds"},
      {"measurement": "binding result", "setting": "[11]", "value": "binds"},
      {"measurement": "binding result", "setting": "[12]", "value": "binds"},
      {"measurement": "binding result", "setting": "[13]", "value": "binds"},
      {"measurement": "binding result", "setting": "[14]", "value": "binds"},
      {"measurement": "binding result", "setting": "[15]", "value": "binds"},
      {"measurement": "binding result", "setting": "[1]", "value": "binds"},
      {"measurement": "binding result", "setting": "[16]", "value": "binds"},
      {"measurement": "binding result", "setting": "[17]", "value": "binds"},
      {"measurement": "binding result", "setting": "[18]", "value": "binds"},
      {"measurement": "binding result", "setting": "[19]", "value": "binds"},
      {"measurement": "binding result", "setting": "[20]", "value": "binds"}
    ]},
    {"binder": "psNb 2-38 (VHH) VHH: QVQLVESGGGLVQAGGSLRLSCAAAARFSTSAMGWFRQAPGKEREFVAAISWSNTNTHYADTVKGRFTISADTAKETVDLQMNSLKPEDTAVYYCVQGGWGIRQPIIVDYWGKGTQVTVSS", "values": [
      {"measurement": "binding result", "setting": "[1]", "value": "binds"}
    ]},
    {"binder": "psNb 2-31 (VHH) VHH: QVQLVESGGGLVQAGESLRLSCAASKPTFRNFAAGWFRQTPGKDREFVAVIEYDGDSAYYADSVKGRFTISRDNAKNTVYLQMNRLKPGDTAVYICAIGGNHYDPSKYYTADEYDYWGQGTQVTVSS", "values": [
      {"measurement": "Kd", "setting": "[4]", "value": 0.00396, "unit": "nM"},
      {"measurement": "Kd", "setting": "[5]", "value": 3.6, "unit": "nM"},
      {"measurement": "binding result", "setting": "[6]", "value": "binds"},
      {"measurement": "binding result", "setting": "[7]", "value": "binds"},
      {"measurement": "binding result", "setting": "[8]", "value": "binds"},
      {"measurement": "binding result", "setting": "[9]", "value": "binds"},
      {"measurement": "binding result", "setting": "[10]", "value": "binds"},
      {"measurement": "binding result", "setting": "[11]", "value": "binds"},
      {"measurement": "binding result", "setting": "[12]", "value": "binds"},
      {"measurement": "binding result", "setting": "[13]", "value": "binds"},
      {"measurement": "binding result", "setting": "[14]", "value": "binds"},
      {"measurement": "binding result", "setting": "[15]", "value": "binds"},
      {"measurement": "binding result", "setting": "[16]", "value": "binds"},
      {"measurement": "binding result", "setting": "[17]", "value": "binds"},
      {"measurement": "binding result", "setting": "[18]", "value": "binds"},
      {"measurement": "binding result", "setting": "[19]", "value": "binds"},
      {"measurement": "binding result", "setting": "[20]", "value": "binds"}
    ]}
  ]
}
